The nanobody polyreactivity screen of Harvey et al. (2022)

Assay: yeast display, Sf9 membrane polyspecificity reagent, FACS + sequencing; frameworks hold sequencing errors
In short: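 Galactose-induced (36–48 hours) yeast carrying a synthetic nanobody display library were exposed to 10% biotinylated, detergent-solubilized Sf9 membrane reagent at 4 °C for 1 hour. FACS followed streptavidin microbead enrichment, using low and high (top ~1%) gates for expression (anti-HA) and reagent binding (streptavidin). Colony PCR, MiSeq 2 × 250 sequencing and CDR-length filtering followed. Labels for polyreactivity reflect the gate of origin.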

| Sequence | polyreactivity (PSR sort gate) |
| --- | --- |
| QVQLVESGGGLVQAGGSLRLSCADSGRTFYYYAMGWYRQAPGKERELVASISYSAGRTYADSVKGRFTISRDNAKNTVYLQMNSLKPEDTAVYYCNADVTTVPYTNDYWGQGTQVTVSS | high polyreactivity |
| QVQLVESGGGLVQAGGSLRLSCADSGRTIRGNAMGWYRQAPGKERELVAAITSSGGGTYYADSVKGRFTISRDNAKNTVYLQMNSLNPEDTAVFYGAAEYRDGYRFSYDYWGQGTQVTVSS | low polyreactivity |
| QVQLVESGGGLVQAGGSLRLSCADSGRTLGVYAMRWYRQAPGKERELVASISFSGGRTYYADSVKGRFTISRDNAKNTVYLQMNSLKPEDTAVYYCAAGGRVRYQTKYRYGYDYWGQGTQVTVSS | low polyreactivity |
| QVQLVESGGGLVQAGGSLRLSCADSGSGGYAMGWYRQAPGKERELVAAIDNGGSTYYADSVKGRFTISRDNAKNTVYLQMNSLKPEDTAVYYCAAAYRDYTQVTAGDYWGQGTQVTVSS | low polyreactivity |
| QVQLVESGGGLVQAGGSLRLSCADSGSIFAGNAMGWYRQAPGKERELVAAISRRGGSTYYADSVKGRFTISRDNAKNTVYLQMNSLKPEDTAVYYCNALLRYAYHAAYGYWGQGTQVTVSS | high polyreactivity |
| QVQLVESGGGLVQAGGSLRLSCADSGSIFAYNGMGWKRQAPGKERELVAAISRGGRTSYADSVKGRFTISRDNAKNTVYLQMNSVKPEDTAVYYCNAVYRWFSSAYVYSSGYNGDYWGQGTQVTVSS | high polyreactivity |
| QVQLVESGGGLVQAGGSLRLSCADSGSIFGYYAMGRYRQAPGKERELVAAISDGGTITYYADSVKGRFTISRDNAKNTVYLQMNSLKPEDTAVYYCAARSPPRYYEHSYYYWGQGTQETVSS | high polyreactivity |
| QVQLVESGGGLVQAGGSLRLSCADSGSIFQPYAMGWYRQAPGKERELVAAINGRGGSTHYADSVKGRFTISRDNEKNSVYLQMNSLKPEDTAVYDCAARYYRDYRWYTYAYDYWGQGTQVTVSS | high polyreactivity |
| QVQLVESGGGLVQAGGSLRLSCADSGSIFWGYAMGWYRQAPGKERELVAVISRGGSTYYADSVKGRFTISRDNAKNTVYLQMNSLKPEDTAVYYCAASSSWFYSPEYDYWGQGTQVSVSS | low polyreactivity |
| QVQLVESGGGLVQAGGSLRLSCADSGSIIGINAMGWYRQAPGKERELVAANNGGGSTYYADSVKGRFTISRDNAKNSVYLQMNSLKPEDTAVYYCAAEWGTSWYDYWGQGTQVTVSS | low polyreactivity |
| QVQLVESGGGLVQAGGSLRLSCADSGSISYYAIGWYRQAPRKESELVAAISSSGGSTYYADSVNGRFTISRDNAKNTVYLQMNSLKPEDTAVYYCAAAVTGCYASDYWGQGTQVTVSS | high polyreactivity |
| QVQLVESGGGLVQAGGSLRLSCADSGSTFPWYAMGWYRQAHGKERELVADISFSGGSTYYSDSVKGRFTISRDNAKNTVYLQMNSLKPEDTAVYYCASETSFLRHAYQSDSFDYWGQGTQVTVSS | high polyreactivity |
| QVQLVESGGGLVQAGGSLRLSCADSGSTFRYNAMGWYREAPGKERELVADIRRSGGSTYYADSVKGRFTISRDKAKNTVYLQMNSLKPEDTAVYYCNAAVSRLYYHSYSYRSYYYWGQGTQVTVSS | high polyreactivity |
| QVQLVESGGGLVQAGGSLRLSCADSGSTFSYYAMGWYRQAPGKEGELVAAISARGGSTNYADSVKGRFTISRDNAKNTVYLQMNSLKPEDTAVYYCAAYDPLVDYFRYAYSDDYWGQGTQVTVSS | high polyreactivity |
| QVQLVESGGGLVQAGGSLRLSCADSGSTFVSNTMGWYRQAPGKERELVAAISSSGGSTYYADSVKGRFSISRDNAKNTVYLQMNSLKPEDTAVYYCAAYYRAYRRDYYWGQGTQVTVSS | high polyreactivity |
| QVQLVESGGGLVQAGGSLRLSCADSGSTFWYDMGWYRQAPGKERELVAAISDAGSTYYADSVKGRFTISRDNAKITVYLQMNSLKPEDTGFYFCAADGVYWRWYLYTFWMDYWGQGTQVTVSS | low polyreactivity |

| Sequence | polyreactivity (PSR sort gate) |
| --- | --- |
| QVQLVESGGGLVQAGGSLRLSCADSGYTFGTYAMGWYIKAPGKERELVAAISNSGGSTYYADSVKGRFTISRDNAKNTVYLQMNSLKPEDTAVYYFNTDGLVRNGPFYSWGLGTQVTVSS | low polyreactivity |
| QVQLVESGGGLVQAGGSLRLSCADSGYTIILYVMGWYRQAPGKERELVAVITLSGGITYYADSVKGRFTISRDNAKNTVYLQMNSLKPEDTAVYYCAVDVYHNRYFTLTSWYHYDSWGQGTQVTVSS | low polyreactivity |
| QVQLVESGGGLVQAGGSLRLSCADSRSTFYIYAMGWYRQAPGKERELVAAIRRSGGSTYYADSVKGRFTISRDNAKNTVYLQMISLKPEDTAVYYCATRYLWRPRPYDYWGQGTQVTVSS | high polyreactivity |
| QVQLVESGGGLVQAGGSLRLSCADYGIIFSPYAMGWYRQAPGKERELVAAISYSGGSTYYADSVKGRFTISRDNAKNTVKLQMNSLKPEDTAVYYCAVVYSYYLAVLGYWDYDYWGQGTQVTVSS | low polyreactivity |
| QVQLVESGGGLVQAGGSLRLSCAGSGFIITQYPMGWYRQAPGKERELVAAISGNGGRTYYADSVKGRFTISRDNAKNTDYLQMNSLKPEDTAVYYCAVTRPGRRYPFGYDYWGQGTQVTVSS | low polyreactivity |
| QVQLVESGGGLVQAGGSLRLSCAGSGFTFGIYAMGSDRQAPGKERELVAAISSSGGSTYYADSVKGRFTISRDNAKNTVYLQMNSLKPEDTAVYYCAAVNSRRRYWYDYWGQGTQVTVSS | high polyreactivity |
| QVQLVESGGGLVQAGGSLRLSCAGSGIILYWNTMGWYRHAPGKERELVAAITWSVGRTYYADSVKGRFTISRDNAKNTVYLQMNSLKPEDTAVYYCATTFQYYWFSLYDYWGQGTQVTVSS | low polyreactivity |
| QVQLVESGGGLVQAGGSLRLSCAGSGRIFTQYAMGWYGQAPGKERELVAAINASDGSTYADSVKGRFTISRDNAKNTVYLQMNSLKPEDTAVYYCNVTGGPYDFTRWSEFDHWGQGTQVTVSS | low polyreactivity |
| QVQLVESGGGLVQAGGSLRLSCAGSGRIFVSYAMGWYRQAPGKERELVAAITRSGGSTYYADSVKGRFTISRDNAKNTVYLQMNSLKPEDTAVYYCNAYIPRTRYRSGYWGQGTQVTVSS | high polyreactivity |
| QVQLVESGGGLVQAGGSLRLSCAGSGRTFGRYAMGGYRQAPGKERELVAAIRSGGSTYYADSVKGRFTISRDNAKNTVYFQMNSLKPEDTAVYYCAADSTSLYNYWGQGTQVTVLS | low polyreactivity |
| QVQLVESGGGLVQAGGSLRLSCAGSGSIFKRYAMGWYRQAPGKERELVAAITSRGGSTYYADSVKGRFTISRDTAKNTVYLQLNSLKPEDTAVYYCAATRSSTNGYDYWGQGTQVTVSS | high polyreactivity |
| QVQLVESGGGLVQAGGSLRLSCAGSGSTFGGYAMGWYRQAPGKEWELVAAINSGGSTYYADSVKGRFTISRDNAKNTVYLQMNSLKPEDTAVYYCNADSQVIRDYIFDYWGQGTQVTVSS | low polyreactivity |
| QVQLVESGGGLVQAGGSLRLSCAGSGSTFQRYGMGWYRQAPGKEREFVAAISTSGGITYYADSVKGRFTISRDNAKNTVYLQMNSLKPEDTAVYYCAARTARHVRYWAGWRDYWGQGTQVTVSS | high polyreactivity |
| QVQLVESGGGLVQAGGSLRLSCAGSGSTLAIYAMGWYRHAPGKERELVAAISGGGSTYADSVKGRFTISRDNAKNTVYLQMISLKPEDTAVYYCNADGWGDRFWSNFRFDYWGQGTQVTVSS | low polyreactivity |
| QVQLVESGGGLVQAGGSLRLSCAHSASTLQIYAMGWDRQAPGKESELVASISSTTSTNYADSVMGRFTISRDNAKNTVYLQMNSMKPEDTAVYYCARERFGGTDSQVVPWFRFDYDYWGQRTQVTVSS | low polyreactivity |
